Data on five substances can be found in PMC9065035, “Structural basis for the synthesis of the core 1 structure by C1GalT1” (Nature Communications, 2022).

The target in data set [1] is DmC1GalT1^T43-Q388 (Drosophila melanogaster C1GalT1, residues T43-Q388) (Drosophila melanogaster) (UniProt Q7K237).
Data set [2] shares this target. Briefly: ITC; with an excess of UDP: 2 mM (glyco)peptide titrated into 60 μM (APDT*RP, APDTRP) or 50 μM (P4/P7) enzyme; 25 mM TRIS pH 7.5, 150 mM NaCl, 1 mM UDP, 1 mM MnCl2; 20 °C; one-site model; low Wiseman c (c < 1). In general terms: Isothermal titration calorimetry measures the heat released or taken up as one component is titrated into another.
Data set [3] deals with Drosophila melanogaster C1GalT1, residues T43-Q388 (DmC1GalT1^T43-Q388) (Drosophila melanogaster) (UniProt Q7K237). Briefly: ITC; 2 mM glycopeptide titrated into the enzyme (60 uM for APDT*RP, 50 uM for P4/P7); excess of UDP: 25 mM TRIS pH 7.5, 150 mM NaCl, 1 mM UDP, 1 mM MnCl2; 20 °C; one-site model; duplicate.
For data set [4], the system named is CC(=O)N[C@H]1[C@@H](O[C@H](C)[C@H](NC(=O)[C@H](CC(=O)O)NC(=O)[C@@H]2CCCN2C(=O)[C@H](C)N)C(=O)N[C@@H](CCCNC(=N)N)C(=O)N2CCC[C@H]2C(N)=O)O[C@H](CO)[C@H](O)[C@@H]1O. Briefly: purified protein, by the assay type. The note with it: 500 µM UDP-Gal, 37.0 °C.
Data set [5] concerns CC(=O)N[C@H]1[C@@H](O[C@H](C)[C@H](NC(=O)[C@H](C)NC(=O)[C@H](C)NC(=O)[C@@H]2CCCN2)C(=O)NCC(=O)N2CCC[C@H]2C(=O)N[C@@H](Cc2ccc(O)cc2)C(N)=O)O[C@H](CO)[C@H](O)[C@@H]1O. Briefly: purified protein, by the assay type. Particulars: other: acceptor substrate varied (P1–P7 12.5–500 µM; APDT*RP/APDS*RP 12.5–1000 µM; α-O-methyl-GalNAc up to 2 mM), 500 µM UDP-Gal, 500 nM enzyme, 25 mM Tris pH 7.5, 150 mM NaCl, 50 µM MnCl2, 1 mg/ml BS, 37.0 °C.

The subject of data set [6] is CC(=O)N[C@H]1[C@@H](O[C@H](C)[C@H](NC(=O)[C@H](CC(=O)O)NC(=O)[C@H](C)NC(=O)[C@@H](N)Cc2ccc(O)cc2)C(=O)NCC(=O)N2CCC[C@H]2C(=O)N[C@@H](Cc2ccccc2)C(N)=O)O[C@H](CO)[C@H](O)[C@@H]1O. Briefly: purified protein, by the assay type. Particulars: other: acceptor substrate varied (P1–P7 12.5–500 µM; APDT*RP/APDS*RP 12.5–1000 µM; α-O-methyl-GalNAc up to 2 mM), 500 µM UDP-Gal, 500 nM enzyme, 25 mM Tris pH 7.5, 150 mM NaCl, 50 µM MnCl2, 1 mg/ml BS, 37.0 °C.

Data set [7] addresses DmC1GalT1^T43-Q388 (Drosophila melanogaster C1GalT1, residues T43-Q388) (Drosophila melanogaster). Briefly: ITC; under an excess of UDP: 2 mM (glyco)peptide titrated into DmC1GalT1^T43-Q388 (60 µM for APDT*RP and APDTRP, 50 µM for P4/P7); 20 °C; 25 mM TRIS pH 7.5, 150 mM NaCl, 1 mM UDP, 1 mM MnCl2; one-site model; duplicate.
Setting [8] is: other: acceptor substrate varied (P1–P7 12.5–500 µM; APDT*RP/APDS*RP 12.5–1000 µM; α-O-methyl-GalNAc up to 2 mM), 500 nM enzyme, 25 mM Tris pH 7.5, 150 mM NaCl, 50 µM MnCl2, 1 mg/ml BS.

One may read the stoichiometry N as the number of molecules, sites or subunits per partner or assembly. Take “APDT*RP glycopeptide (MUC1 tandem repeat epitope with alpha-GalNAc on Thr)”: the Km^app of the glycopeptide as acceptor substrate (UDP-Glo glycosylation kinetics, 500 nM enzyme, 500 μM UDP-Gal) in data set [1] was determined as 195 µM. In data set [2], the fold by which UDP binds the enzyme more strongly than this peptide is 9.5 fold and the stoichiometry N came to 1.

Usually Kd stands for the equilibrium constant for the complex coming apart. With APDT*RP glycopeptide (GalNAc on Thr), in data set [3], the Kd came out at 173 µM.

As usually defined, the Km is the concentration of substrate that gives half-maximal velocity. On to “DmC1GalT1^S73-Q388 (Drosophila melanogaster)”, for which the Km in data set [4] (other: construct S73-Q388 (Hi5 cells), APDT*RP varied 12.5 µM–1 mM, fit ± standard error, n = 2, pH 7.5) was 322.6 µM.

The kcat is the number of substrate molecules converted per active site and unit of time at saturation. For the substance “DmC1GalT1^T43-Q388 (Drosophila melanogaster)”, the Km in data set [5] came out at 50.06 µM; in data set [4] (setting [8]), 195 µM; in data set [6] it was 139.6 µM. In addition, in data set [4] (setting [8]), the kcat is 0.0583 s⁻¹.

On to “APDT*RP glycopeptide (* = GalNAc on the Thr)”, for which, in data set [7], the Kd turned out to be 174 µM and the stoichiometry N amounted to 0.88.
